What was measured:
[1] = target: T1, soluble GPC3 core polypeptide (Homo sapiens (Human), UniProt P51654 25-563); assay: competitive ELISA against biotinylated H0L0 on immobilized soluble GPC3 core (FIG. 4)
T1 construct: Immobilized on the ELISA plate at 1 ug/mL; also called glypican 3 antigen; glypican 3
Procedure: (§1) The H0L0 antibody and its point mutation-modified antibodies purified in (1) was evaluated by competitive ELISA. 100 μL of the soluble GPC3 core polypeptide (SEQ ID NO: 13) at 1 μg/mL was added to each well of a 96-well plate. The soluble GPC3 core polypeptide was immobilized on the plate by allowing the plate to stand overnight at 4° C. The soluble GPC3 core polypeptide immobilized on the plate was washed 3 times with a washing buffer using Skan WASHER400 (Molecular Devices); and blocked with 200 μL blocking buffer at 4° C. for at least 30 min. The blocked plate on which soluble GPC3 core polypeptide was immobilized was then washed 3 times with washing buffer using the Skan WASHER400. Subsequently, each well of the plate received 200 μL of a mixture containing 100 μL of biotinylated H0L0 antibody (final concentration=0.3 μg/mL) and 100 μL of the H0L0 antibody or its point mutation-modified antibody (at various concentrations). The H0L0 antibody was biotinylated using Biotin Labeling Kit (Roche) according to the instructions provided with the kit. The plate was left stand for 1 hour at room temperature, then washed 5 times with washing buffer using the Skan WASHER400 (Molecular Devices). […] The absorbance at 405 nm of the reaction solution in each well was measured using Benchmark Plus (BIO-RAD), with the control absorbance at 655 nm.

[2] = target: T1, soluble GPC3 core polypeptide; assay: competitive ELISA against biotinylated H0L0 on immobilized soluble GPC3 core (FIG. 14)
Procedure: The H0L0 antibody and its point mutation-modified antibodies purified in (1) was evaluated by competitive ELISA. 100 μL of the soluble GPC3 core polypeptide (SEQ ID NO: 13) at 1 μg/mL was added to each well of a 96-well plate. The soluble GPC3 core polypeptide was immobilized on the plate by allowing the plate to stand overnight at 4° C. The soluble GPC3 core polypeptide immobilized on the plate was washed 3 times with a washing buffer using Skan WASHER400 (Molecular Devices); and blocked with 200 μL blocking buffer at 4° C. for at least 30 min. The blocked plate on which soluble GPC3 core polypeptide was immobilized was then washed 3 times with washing buffer using the Skan WASHER400. Subsequently, each well of the plate received 200 μL of a mixture containing 100 μL of biotinylated H0L0 antibody (final concentration=0.3 μg/mL) and 100 μL of the H0L0 antibody or its point mutation-modified antibody (at various concentrations). The H0L0 antibody was biotinylated using Biotin Labeling Kit (Roche) according to the instructions provided with the kit. The plate was left stand for 1 hour at room temperature, then washed 5 times with washing buffer using the Skan WASHER400 (Molecular Devices). 100 μL goat anti-streptavidin alkaline phosphatase (ZYMED), diluted 20,000× with substrate buffer, was added to each well, and the resulting plate was left stand for 1 hour at room temperature, and then washed 5 times with washing buffer using the Skan WASHER400. Phosphatase Substrate (Sigma) was prepared at 1 mg/mL in the substrate buffer, added at 100 μL per well for 1 hour. The absorbance at 405 nm of the reaction solution in each well was measured using Benchmark Plus (BIO-RAD), with the control absorbance at 655 nm.
The binding activity to the antigen of each constant region pI modified antibody was measured using the method described in Example 1 (FIG. 14).

[3] = target: T1, soluble GPC3 core polypeptide; assay: competitive ELISA against biotinylated H0L0 on immobilized soluble GPC3 core (FIG. 5)
Procedure: as §1

[4] = target: T1, soluble GPC3 core polypeptide; assay: competitive ELISA against biotinylated H0L0 on immobilized soluble GPC3 core (FIG. 10)
Procedure: as §1, with “kit.” for “kit. The plate was left stand for 1 hour at room temperature, then washed 5 times with washing buffer using the Skan WASHER400 (Molecular Devices).”
The binding activity to the antigen glypican 3 of each point mutation pI modified antibody was measured using the method described in Example 1 (FIG. 10).

[5] = target: T1, soluble GPC3 core polypeptide; assay: competitive ELISA against biotinylated H0L0 on immobilized soluble GPC3 core (FIG. 6)
Procedure: as §1

T1 sequence (P51654 other isoform, or with tags, fused parts or gaps limits assumed): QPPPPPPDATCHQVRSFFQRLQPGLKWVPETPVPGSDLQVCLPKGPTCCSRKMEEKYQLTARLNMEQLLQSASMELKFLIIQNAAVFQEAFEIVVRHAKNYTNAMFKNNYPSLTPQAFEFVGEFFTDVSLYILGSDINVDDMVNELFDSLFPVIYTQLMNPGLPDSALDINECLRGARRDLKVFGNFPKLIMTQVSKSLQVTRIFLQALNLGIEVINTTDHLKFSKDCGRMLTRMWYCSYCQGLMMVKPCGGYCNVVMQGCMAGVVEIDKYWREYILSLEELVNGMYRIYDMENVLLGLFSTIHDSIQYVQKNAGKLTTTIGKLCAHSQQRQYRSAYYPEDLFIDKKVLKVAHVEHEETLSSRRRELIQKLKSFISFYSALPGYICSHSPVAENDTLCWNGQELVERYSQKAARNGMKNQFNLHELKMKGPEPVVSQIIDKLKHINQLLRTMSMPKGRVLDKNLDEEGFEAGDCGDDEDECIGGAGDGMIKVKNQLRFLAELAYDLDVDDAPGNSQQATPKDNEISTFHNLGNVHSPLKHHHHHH

binding result [2] | Binder | further results
binds | pH7pL16 antibody (antibody, IgG1, V domains shown, Variable regions only) VH: QVQLVQSGAEVKKPGASVTVSCKASGYTFTDYEMHWIRQPPGEGLEWIGAIDPKTGDTAYSESFQDRVTLTADKSTSTAYMELSSLTSEDTAVYYCTRFYSYTYWGQGTLVTVSS VL: DIVMTQSPLSLPVTPGEPASISCQASESLVHSNRNTYLHWYLQKPGQSPQLLIYKVSNRFSGVPDRFSGSGSGTDFTLKISRVEAEDVGVYYCSQNTHVPPTFGQGTKVEIE | –
binds | humanized H0L0 antibody (antibody, V domains shown, the light chain constant region is not specified; also called humanized GC33 antibody) VH: QVQLVQSGAEVKKPGASVKVSCKASGYTFTDYEMHWVRQAPGQGLEWMGALDPKTGDTAYSQKFKGRVTLTADKSTSTAYMELSSLTSEDTAVYYCTRFYSYTYWGQGTLVTVSS VL: DVVMTQSPLSLPVTPGEPASISCRSSQSLVHSNRNTYLHWYLQKPGQSPQLLIYKVSNRFSGVPDRFSGSGSGTDFTLKISRVEAEDVGVYYCSQNTHVPPTFGQGTKLEIK | –

More lines, now with the values behind:

Binder | binding result [2] | further results
H15L4 antibody (antibody, V domains shown, Point-mutation modified form of H0L0) VH: QVQLVQSGAEVKKPGASVKVSCKASGYTFTDYEMHWIRQPPGQGLEWIGAIDPKTGDTAYSQKFKGRVTLTADKSTSTAYMELSSLTSEDTAVYYCTRFYSYTYWGQGTLVTVSS VL: DIVMTQSPLSLPVTPGEPASISCRSSQSLVHSNRNTYLHWYQQKPGQAPRLLIYKVSNRFSGVPDRFSGSGSGTDFTLKISRVEAEDVGVYYCSQNTHVPPTFGQGTKLEIK | – | binding result [1]: binds
pH7M85pL16 antibody (antibody, human IgG1, V domains shown, its constant region is not specified; also called pH7M85pL6 [sic]) VH: QVQLVQSGAEVKKPGASVTVSCKASGYTFTDYEMHWIRQPPGEGLEWIGAIDPKTGDTAYSESFQDRVTLTADKSTSTAYMELSSLTSEDTAVYYCTRFYSYTYWGQGTLVTVSS VL: DIVMTQSPLSLPVTPGEPASISCQASESLVHSNRNTYLHWYLQKPGQSPQLLIYKVSNRFSGVPDRFSGSGSGTDFTLKISRVEAEDVGVYYCSQNTHVPPTFGQGTKVEIE | binds | –
H0M85L0 antibody (antibody, human IgG1, V domains shown, its constant region is not specified) VH: QVQLVQSGAEVKKPGASVKVSCKASGYTFTDYEMHWVRQAPGQGLEWMGALDPKTGDTAYSQKFKGRVTLTADKSTSTAYMELSSLTSEDTAVYYCTRFYSYTYWGQGTLVTVSS VL: DVVMTQSPLSLPVTPGEPASISCRSSQSLVHSNRNTYLHWYLQKPGQSPQLLIYKVSNRFSGVPDRFSGSGSGTDFTLKISRVEAEDVGVYYCSQNTHVPPTFGQGTKLEIK | binds | –
Hspu2.2Lspu2.2 (Hu2.2Lu2.2) antibody (antibody, V domains shown, Raised-pI variant; Hspu2.2 = H15 + Q43K, D52N, Q107R; Lspu2.2 = L4 + E17Q, Q27R, Q105R, S25A) VH: QVQLVQSGAEVKKPGASVKVSCKASGYTFTDYEMHWIRQPPGKGLEWIGAINPKTGDTAYSQKFKGRVTLTADKSTSTAYMELSSLTSEDTAVYYCTRFYSYTYWGRGTLVTVSS VL: DIVMTQSPLSLPVTPGQPASISCRASRSLVHSNRNTYLHWYQQKPGQAPRLLIYKVSNRFSGVPDRFSGSGSGTDFTLKISRVEAEDVGVYYCSQNTHVPPTFGRGTKLEIK | – | binding result [3]: binds
pH7pL14 antibody (antibody, V domains shown) VH: QVQLVQSGAEVKKPGASVTVSCKASGYTFTDYEMHWIRQPPGEGLEWIGAIDPKTGDTAYSESFQDRVTLTADKSTSTAYMELSSLTSEDTAVYYCTRFYSYTYWGQGTLVTVSS VL: DIVMTQSPLSLPVTPGEPASISCQASESLVHSNRNTYLHWYLQKPGQSPQLLIYKVSNRFSGVPDRFSGSGSGTDFTLKISRVEAEDVGVYYCSQNTHVPPTFGQGTKLEIK | – | binding result [4]: binds
Hspd1.8Lspd1.6 (Hd1.8Ld1.6) antibody (antibody, V domains shown, Lowered-pI variant; Hspd1.8 = H15 + K19T, Q43E, K63S, K65Q, G66D; Lspd1.6 = L4 + Q27E, KISRVE(79-84) to TISSLQ, S25A) VH: QVQLVQSGAEVKKPGASVTVSCKASGYTFTDYEMHWIRQPPGEGLEWIGAIDPKTGDTAYSQSFQDRVTLTADKSTSTAYMELSSLTSEDTAVYYCTRFYSYTYWGQGTLVTVSS VL: DIVMTQSPLSLPVTPGEPASISCRASESLVHSNRNTYLHWYQQKPGQAPRLLIYKVSNRFSGVPDRFSGSGSGTDFTLTISSLQAEDVGVYYCSQNTHVPPTFGQGTKLEIK | – | binding result [5]: binds

— US20150315278A1 (Chugai, published 2015)
